Molecular target: T1, CXCR4-VC (human), P61073
T1 chain: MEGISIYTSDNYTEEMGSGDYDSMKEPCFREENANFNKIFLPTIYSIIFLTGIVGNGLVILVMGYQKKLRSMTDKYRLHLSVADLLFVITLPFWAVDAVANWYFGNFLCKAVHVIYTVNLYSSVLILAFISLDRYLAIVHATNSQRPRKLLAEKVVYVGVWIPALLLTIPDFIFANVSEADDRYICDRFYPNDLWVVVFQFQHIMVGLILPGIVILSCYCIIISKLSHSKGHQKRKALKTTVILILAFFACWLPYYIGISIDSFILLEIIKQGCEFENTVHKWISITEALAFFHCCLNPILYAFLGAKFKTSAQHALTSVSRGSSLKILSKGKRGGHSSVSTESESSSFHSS
Assay: BiFC, U-2 OS cells; score=(positive cells/total cells)x100
Conditions: remark: other sources report otherwise

B1: CXCR4-VN, P61073 1-352 (receptor, human, UniProt P61073 1-352, looked up, not shown: small tags and cut ends)
chain: T1 chain
  BiFC score: 9.9

Source: patent US20190183976A1
